Assay results reported in paper PMC10666094.

Tested on: CNBP full-length
Assay: MST
Details: MST Buffer (composition, salt and pH not given); RED-Tris-NTA labeling 30 min at room temperature; RNA in 16 two-fold dilutions; 60% LED, high MST power …

With SARS-CoV-2 genome RNA the Kd was 29.7 µg/mL.
